Test [1] relates to GFP-PERK. The experiment in a line: PERK kinase assay after (ADP-ribosyl)ation of ER microsomes by GST-PARP-16. It is filed as biochemical, human. Particulars: versus GST-PARP-16 samples; depending on NAD concentration. The protocol:
We examined PERK and IRE1α kinase activity in response to (ADP-ribosyl)ation by PARP-16 via self-phosphorylation assays. ER microsomes purified from GFP-PERK- or GFP-IRE1α-expressing cells were washed with 1M NaCl to remove bound PARP-16, returned to physiological salt buffer, split into duplicate reactions, and incubated with unlabeled NAD^+ plus either GST-PARP-16 or GST-PARP-16^H152Q Y182A, or ^32P-NAD^+ plus either recombinant protein. (ADP-ribosyl)ated GFP-PERK or GFP-IRE1α were extracted from the microsomes and purified under 1 M NaCl conditions to remove added recombinant PARP-16 proteins. Reactions containing unlabeled NAD^+ were incubated with ^32P-ATP, and reactions containing ^32P-NAD^+ were incubated with unlabeled ATP. […] Phosphorylation by GFP-IRE1α at the molecular weight of GST-PARP-16 and GST-PARP16^H152Q Y182A was also detected (FIG. 7E).
PERK and IRE1α kinase assays were performed as described herein. […] Proteins were immunoprecipitated, eluted in 1× Laemmli sample buffer by heating at 65° C. for 10 min, and then analyzed using autoradiogram and immunoblotting.

For test [2], the target named is T1, PARP-16 (Homo sapiens, UniProt Q8N5Y8).
T1 construct: Asterisk=full-length proteins; made in house; host or cells: E. coli BL21 RIPL
T1 sequence (Q8N5Y8 1-322): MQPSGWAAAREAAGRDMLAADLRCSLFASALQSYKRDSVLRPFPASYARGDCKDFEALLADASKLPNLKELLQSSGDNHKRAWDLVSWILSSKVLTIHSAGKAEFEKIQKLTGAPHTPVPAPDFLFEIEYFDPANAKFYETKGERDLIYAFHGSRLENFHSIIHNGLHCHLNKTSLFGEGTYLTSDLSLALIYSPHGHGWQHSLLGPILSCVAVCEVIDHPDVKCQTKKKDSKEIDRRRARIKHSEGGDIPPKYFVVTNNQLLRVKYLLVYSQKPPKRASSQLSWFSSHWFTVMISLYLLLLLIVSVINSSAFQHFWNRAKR
The experiment in a line: 32P-NAD+ incorporation assay with recombinant GST-PARP-16 (self-modification). To be noted: of wild-type GST-PARP-16; purified from E. coli. Format: biochemical. The text has this: Human PARP-16 (ADP-ribosyl)ates itself and contains histidine and tyrosine residues at amino acid 152 and 182 within its catalytic domain, residues thought to be critical for enzymatic activity (FIG. 1B) (Kleine et al., Mol. Cell 32: 57-69, 2008). To determine if these residues are required for enzymatic activity, GST-PARP-16 and GST-PARP-16^H152Q Y182A were expressed and purified in E. coli, and ^32P-NAD^+ incorporation assays performed.
(§1) For ER microsome-based assays including NAD^+ incorporation and immunoprecipitation, ER microsomes were fractionated from HeLa cells via isopycnic flotation method as described in Stephens et al., Methods Mol Biol. 419: 197-214, 2008, and incubated with 100 μM β-NAD^+ (MP Biomedicals) and 2.5 μCi of ^32P-NAD^+ (Perkin Elmer) in a PARP reaction buffer (50 mM HEPES pH 7.4, 150 mM NaCl, 1 mM MgCl2, 10 mM EGTA, 1 mM DTT, 0.1 mM Na3VO4, 50 mM NaF, 5 mM β-glycerophosphate, 1 μM ADP-HPD, and protease inhibitor cocktail) at 25° C. for 30 min. The ratio between unlabeled and labeled NAD^+ was kept constant upon titration of NAD^+ concentration. The ^32P-labeled ER microsomes were then lysed by addition of Triton X-100 at 1%. Proteins were immunoprecipitated, eluted in a 1× Laemmli sample buffer by boiling at 65° C. for 10 min, and then analyzed using autoradiogram and immunoblotting. […]

Test [3] has as its system PERK. Description: NAD+ incorporation assay with ER microsome-purified PERK and recombinant GST-PARP-16. It is filed as biochemical, human. Particulars: PERK purified from ER microsomes of unstressed PARP-16 knockdown cells.
Source text: We examined NAD^+ incorporation onto GFP-PERK or GFP-IRE1α via EMAA in cells transfected with control or PARP-16 siRNA, treated with or without ER stress inducing drugs. Low level (ADP-ribosyl)ation of GFP-PERK and GFP-IRE1α was detected in control knock-down cells in the absence of drug (FIGS. 6C and 6D), likely due to the previously described UPR induction upon PERK or IRE1α expression (Bertolotti et al., Nat. Cell Biol. 2: 326-332, 2000; Kimata et al., Curr. Opin. Cell Biol. 23: 135-142, 2011).
as §1

Numbering of substitutions follows the chain as printed. Names may count otherwise.

B1: GST-PARP-16^H152Q Y182A: recombinant GST-PARP-16 catalytically inactive mutant, His152 and Tyr182 mutated, purified in E. coli (protein, UniProt Q8N5Y8 1-322, looked up, variant H152Q Y182A)
Protein …: T1 sequence (Q8N5Y8 1-322) with H152Q, Y182A
modifications: GST fusion
Regarding B1, the “reduction of phosphorylation by PERK at the molecular weight of GST-PARP-16” value in test [1] is recorded as 5-10 fold. Moreover, the “32P-NAD+ incorporation activity relative to wild-type” value in test [2] is roughly 6%. For the same molecule, the “ADP-ribosylation of PERK” value in test [3] is “not”.

The values are drawn from patent US20140348857A1, “METHODS OF DIAGNOSIS AND TREATMENT OF ENDOPLASMIC RETICULUM (ER) STRESS-RELATED CONDITIONS” (MASSACHUSETTS INSTITUTE OF TECHNOLOGY, priority 2011, published 2014).
